Results taken from the supplement of paper PMC6755084.

B1: minF1; the commonest letter at each place (parent)
chain: GAGACCGCAACTGAAAAGTTGTTATCAGAAATGGATGGGTTGAATTTCTGCACGTAGAAGCAAAAGGC

Variants of: B1
Assay: fraction ligated after 30 min (ligated reads / total reads); higher = more ligase activity
Conditions: with F1*subA RNA substrate (template-directed ligation), 42 °C
Outline: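 Fraction ligated for every variant was calculated as the share of total reads that came from ligated RNA. Minimized ligase ribozyme variants were made from oligo-pool templates by PCR amplification, T7 transcription and gel purification. After gel separation of ligated and unligated RNAs, reverse transcription with barcoded primers and MiSeq sequencing followed. Only core bases at quality ≥30 passed filtering.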

Row | Variant | fraction ligated
1 | T32A A43C | 0.0118
2 | T32A A43T | 0.0778
3 | T32A A43G | 0.0134
4 | A29T A44C | 0.59
5 | A29T A44G | 0.734
6 | A29T A44T | 0.741
7 | A31T G42C | 0.0234
8 | A31T G42A | 0.495
9 | A31T G42T | 0.193
10 | A29T G34T | 0.00673
11 | A29T G34C | 0.00521
12 | A29T G34A | 0.0752
13 | A31C A44C | 0.655
14 | A31C A44G | 0.754
15 | A31C A44T | 0.794
16 | A31T G34C | 0.00659
17 | A31T G34A | 0.071
18 | A31T G34T | 0.0067
19 | A30G G34T | 0.00265
20 | A30G G34C | 0.00227
21 | A30G G34A | 0.0439
22 | A30C T32G | 0.019
23 | A30C T32C | 0.00933
24 | A30C T32A | 0.0274

Row | Variant | fraction ligated
25 | A29C G33T | 0.526
26 | A29C G33A | 0.784
27 | A29C G33C | 0.743
28 | A31C T36A | 0.0194
29 | A31C T36G | 0.0226
30 | A31C T36C | 0.0114
31 | A30G G33A | 0.821
32 | A30G G33C | 0.805
33 | A30G G33T | 0.672
34 | A31T T36A | 0.0236
35 | A31T T36G | 0.0351
36 | A31T T36C | 0.0101
37 | G28C T36C | 0.0172
38 | G28C T36A | 0.0306
39 | G28C T36G | 0.0324
40 | A30C T36A | 0.0266
41 | A30C T36G | 0.0467
42 | A30C T36C | 0.0174
43 | A30T G33T | 0.387
44 | A30T G33A | 0.747
45 | A30T G33C | 0.663
46 | A29G A44C | 0.649
47 | A29G A44G | 0.753
48 | A29G A44T | 0.76

Row | Variant | fraction ligated
49 | A31T A43C | 0.157
50 | A31T A43T | 0.215
51 | A31T A43G | 0.157
52 | A29C A43G | 0.0549
53 | A29C A43C | 0.0193
54 | A29C A43T | 0.0813
55 | A29C G37C | 0.00528
56 | A29C G37A | 0.00482
57 | A29C G37T | 0.0129
58 | A29C A44T | 0.705
59 | A29C A44G | 0.748
60 | A29C A44C | 0.607
61 | G28T A44C | 0.685
62 | G28T A44T | 0.794
63 | G28T A44G | 0.759
64 | A30G T32C | 0.0409
65 | A30G T32A | 0.108
66 | A30G T32G | 0.0298
67 | A30G A43C | 0.179
68 | A30G A43T | 0.188
69 | A30G A43G | 0.14
70 | A29G G42C | 0.00737
71 | A29G G42A | 0.28
72 | A29G G42T | 0.096

Row | Variant | fraction ligated
73 | A31C G33T | 0.355
74 | A31C G33A | 0.767
75 | A31C G33C | 0.653
76 | A31G T32A | 0.073
77 | A31G T32G | 0.0239
78 | A31G T32C | 0.00833
79 | A29C A35G | 0.189
80 | A29C A35T | 0.012
81 | A29C A35C | 0.00361
82 | G28T A43C | 0.117
83 | G28T A43G | 0.0967
84 | G28T A43T | 0.158
85 | A30G | 0.807
86 | A30C | 0.806
87 | A30T | 0.823
88 | A31T G37T | 0.0157
89 | A31T G37C | 0.00621
90 | A31T G37A | 0.00615
91 | G28T A30T | 0.832
92 | G28T A30G | 0.835
93 | G28T A30C | 0.819
94 | A29G A43G | 0.0803
95 | A29G A43T | 0.0936
96 | A29G A43C | 0.0987

Row | Variant | fraction ligated
97 | A29C G34T | 0.00671
98 | A29C G34A | 0.042
99 | A29C G34C | 0.00225
100 | A31G A43G | 0.101
101 | A31G A43T | 0.168
102 | A31G A43C | 0.142
103 | A31G T36C | 0.0127
104 | A31G T36A | 0.0331
105 | A31G T36G | 0.0415
106 | G28T G37A | 0.00866
107 | G28T G37T | 0.0287
108 | G28T G37C | 0.00638
109 | A29T A31C | 0.798
110 | A29T A31T | 0.828
111 | A29T A31G | 0.811
112 | A29T T32C | 0.0232
113 | A29T T32A | 0.0493
114 | A29T T32G | 0.0161
115 | A30C A44C | 0.565
116 | A30C A44G | 0.686
117 | A30C A44T | 0.703
118 | A29G T32C | 0.0215
119 | A29G T32A | 0.0412
120 | A29G T32G | 0.0222

Row | Variant | fraction ligated
121 | A29T A30T | 0.789
122 | A29T A30C | 0.806
123 | A29T A30G | 0.821
124 | A30G A35C | 0.0448
125 | A30G A35T | 0.0595
126 | A30G A35G | 0.4
127 | A31C G42A | 0.279
128 | A31C G42C | 0.00681
129 | A31C G42T | 0.0885
130 | A29C T32G | 0.0113
131 | A29C T32A | 0.0419
132 | A29C T32C | 0.0191
133 | T32A | 0.0612
134 | A29G | 0.827
135 | A29T | 0.815
136 | A29C | 0.823
137 | A31G A35T | 0.0156
138 | A31G A35C | 0.022
139 | A31G A35G | 0.294
140 | A31G G42A | 0.367
141 | A31G G42T | 0.126
142 | A31G G42C | 0.0118
143 | A31G G34C | 0.00824
144 | A31G G34T | 0.00852

Row | Variant | fraction ligated
145 | A31G G34A | 0.0934
146 | A31G A44T | 0.804
147 | A31G A44G | 0.788
148 | A31G A44C | 0.71
149 | A30T G37C | 0.0041
150 | A30T G37A | 0.00958
151 | A30T G37T | 0.0219
152 | A30T G42T | 0.0705
153 | A30T G42A | 0.202
154 | A30T G42C | 0.00805
155 | A31T | 0.815
156 | A31G | 0.805
157 | A31C | 0.813
158 | A29G A35T | 0.023
159 | A29G A35G | 0.204
160 | A29G A35C | 0.0139
161 | A31C A43C | 0.0314
162 | A31C A43G | 0.0644
163 | A31C A43T | 0.0946
164 | A29T G33A | 0.783
165 | A29T G33T | 0.453
166 | A29T G33C | 0.721
167 | A30C A43C | 0.0543
